Test results from US8541552.

Target: T1, LTα1β2 (human, UniProt P01374)
T1 chain 1: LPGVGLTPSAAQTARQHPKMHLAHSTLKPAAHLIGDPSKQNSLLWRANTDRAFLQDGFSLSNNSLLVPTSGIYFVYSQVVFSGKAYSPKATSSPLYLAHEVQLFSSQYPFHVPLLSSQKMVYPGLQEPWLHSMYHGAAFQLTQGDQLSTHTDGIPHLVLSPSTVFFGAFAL
T1 chain 2: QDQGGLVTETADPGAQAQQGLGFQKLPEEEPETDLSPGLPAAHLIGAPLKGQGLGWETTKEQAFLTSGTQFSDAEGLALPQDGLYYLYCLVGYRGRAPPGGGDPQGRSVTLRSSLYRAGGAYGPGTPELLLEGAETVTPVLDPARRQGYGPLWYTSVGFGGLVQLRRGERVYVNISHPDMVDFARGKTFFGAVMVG
Experiment: ELISA

B1: TNFRII.Fc (protein)
chain: LPAQVAFTPYAPEPGSTCRLREYYDQTAQMCCSKCSPGQHAKVFCTKTSDTVCDSCEDSTYTQLWNWVPECLSCGSRCSSDQVETQACTREQNRICTCRPGWYCALSKQEGCRLCAPLRKCRPGFGVARPGTETSDVVCKPCAPGTFSNTTSSTDICRPHQICNVVAIPGNASMDAVCTSTSPTRSMAPGAVHLPQPVSTRSQHTQPTPEPSTAPSTSFLLPMGPSPPAEGSTGD
- binding result: no binding
